From the supplement of paper PMC5998384

Experiments:
HeLa Kyoto [1] = assay: solubility in G1/S (NP-40 vs SDS abundance) (log2 ratio); higher = more soluble; conditions: cell cycle stage: G1/S
HeLa Kyoto [2] = assay: solubility change mitosis vs G1/S (difference of NP-40 vs SDS log2 ratios) (log2 ratio difference); higher = more soluble in mitosis
HeLa Kyoto [3] = assay: melting temperature (median over replicates), in situ; higher = more thermally stable
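For melting temperature (median over replicates), in situ in this document: HeLa Kyoto cells synchronized by double thymidine or nocodazole block, proteins quantified by TMT10plex mass spectrometry, three independent biological replicates.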
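For solubility change mitosis vs G1/S (difference of NP-40 vs SDS log2 ratios) in this document: synchronized HeLa Kyoto cells (double thymidine block for G1/S, nocodazole release for mitosis), protein amounts in NP-40 versus SDS lysates quantified by mass spectrometry, three biological replicates.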
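For solubility in G1/S (NP-40 vs SDS abundance) in this document: HeLa Kyoto cells arrested at G1/S by double thymidine block, proteins quantified by TMT10plex mass spectrometry in mild NP-40 versus SDS extracts, three biological replicates.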

Sequence	solubility in G1/S (log2) (HeLa Kyoto [1])	solubility change mitosis (log2) (HeLa Kyoto [2])	melting temperature (HeLa Kyoto [3]; cell cycle stage: G1/S) [°C]	melting temperature (HeLa Kyoto [3]; cell cycle stage: mitosis) [°C]
MLGLCGQRLPAAWVLLLLPFLPLLLLAAPAPHRASYKPVIVVHGLFDSSYSFRHLLEYINETHPGTVVTVLDLFDGRESLRPLWEQVQGFREAVVPIMAKAPQGVHLICYSQGGLVCRALLSVMDDHNVDSFISLSSPQMGQYGDTDYLKWLFPTSMRSNLYRICYSPWGQEFSICNYWHDPHHDDLYLNASSFLALINGERDHPNATVWRKNFLRVGHLVLIGGPDDGVITPWQSSFFGFYDANETVLEMEEQLVYLRDSFGLKTLLARGAIVRCPMAGISHTAWHSNRTLYETCIEPWLS [PPT2]	0.733	-0.131	56.4	55.9
MMGCFALQTVDTELTADSVEWCPLQGCRHLLACGTYQLRRPEDRPAGPQNKGGMEVKEPQVRLGRLFLYSFNDNNSIHPLVEVQRKDTSAILDMKWCHIPVAGHALLGLADASGSIQLLRLVESEKSHVLEPLSSLALEEQCLALSLDWSTGKTGRAGDQPLKIISSDSTGQLHLLMVNETRPRLQKVASWQAHQFEAWIAAFNYWHPEIVYSGGDDGLLRGWDTRVPGKFLFTSKRHTMGVCSIQSSPHREHILATGSYDEHILLWDTRNMKQPLADTPVQGGVWRIKWHPFHHHLLLAACMHSGFKILNCQKAMEERQEATVLTSHTLPDSLVYGADWSWLLFRSLQRAPSWSFPSNLGTKTADLKGASELPTPCHECREDNDGEGHARPQSGMKPLTEGMRKNGTWLQATAATTRDCGVNPEEADSAFSLLATCSFYDHALHLWEWEGN [DPH7]	-0.0249	-0.0679	–	57.1
MMWQKYAGSRRSMPLGARILFHGVFYAGGFAIVYYLIQKFHSRALYYKLAVEQLQSHPEAQEALGPPLNIHYLKLIDRENFVDIVDAKLKIPVSGSKSEGLLYVHSSRGGPFQRWHLDEVFLELKDGQQIPVFKLSGENGDEVKKE [COA1]	0.0268	0.0489	54.7	55.7
MNRPAPVEISYENMRFLITHNPTNATLNKFTEELKKYGVTTLVRVCDATYDKAPVEKEGIHVLDWPFDDGAPPPNQIVDDWLNLLKTKFREEPGCCVAVHCVAGLGRAPVLVALALIECGMKYEDAVQFIRQKRRGAFNSKQLLYLEKYRPKMRLRFRDTNGHCCVQ [PTP4A2]	-0.226	-0.087	53.7	54.1
MPAFLGLKCLGKLCSSEKSKVTSSERTSARGSNRKRLIVEDRRVSGTSFTAHRRATITHLLYLCPKDYCPRGRVCNSVDPFVAHPQDPHHPSEKPVIHCHKCGEPCKGEVLRVQTKHFHIKCFTCKVCGCDLAQGGFFIKNGEYLCTLDYQRMYGTRCHGCGEFVEGEVVTALGKTYHPNCFACTICKRPFPPGDRVTFNGRDCLCQLCAQPMSSSPKETTFSSNCAGCGRDIKNGQALLALDKQWHLGCFKCKSCGKVLTGEYISKDGAPYCEKDYQGLFGVKCEACHQFITGKVLEAGDKHYHPSCARCSRCNQMFTEGEEMYLQGSTVWHPDCKQSTKTEEKLRPTRTSSESIYSRPGSSIPGSPGHTIYAKVDNEILDYKDLAAIPKVKAIYDIERPDLITYEPFYTSGYDDKQERQSLGESPRTLSPTPSAEGYQDVRDRMIHRSTSQGSINSPVYSRHSYTPTTSRSPQHFHRPGNEPSSGRNSPLPYRPDSRPLTPTYAQAPKHFHVPDQGINIYRKPPIYKQHAALAAQSKSSEDIIKFSKFPAAQAPDPSETPKIETDHWPGPPSFAVVGPDMKRRSSGREEDDEELLRRRQLQEEQLMKLNSGLGQLILKEEMEKESRERSSLLASRYDSPINSASHIPSSKTASLPGYGRNGLHRPVSTDFAQYNSYGDVSGGVRDYQTLPDGHMPAMRMDRGVSMPNMLEPKIFPYEMLMVTNRGRNKILREVDRTRLERHLAPEVFREIFGMSIQEFDRLPLWRRNDMKKKAKLF [ABLIM1]	-0.8	0.599	46.2	51.7
MPIVDKLKEALKPGRKDSADDGELGKLLASSAKKVLLQKIEFEPASKSFSYQLEALKSKYVLLNPKTEGASRHKSGDDPPARRQGSEHTYESCGDGVPAPQKVLFPTERLSLRWERVFRVGAGLHNLGNTCFLNATIQCLTYTPPLANYLLSKEHARSCHQGSFCMLCVMQNHIVQAFANSGNAIKPVSFIRDLKKIARHFRFGNQEDAHEFLRYTIDAMQKACLNGCAKLDRQTQATTLVHQIFGGYLRSRVKCSVCKSVSDTYDPYLDVALEIRQAANIVRALELFVKADVLSGENAYMCAKCKKKVPASKRFTIHRTSNVLTLSLKRFANFSGGKITKDVGYPEFLNIRPYMSQNNGDPVMYGLYAVLVHSGYSCHAGHYYCYVKASNGQWYQMNDSLVHSSNVKVVLNQQAYVLFYLRIPGSKKSPEGLISRTGSSSLPGRPSVIPDHSKKNIGNGIISSPLTGKRQDSGTMKKPHTTEEIGVPISRNGSTLGLKSQNGCIPPKLPSGSPSPKLSQTPTHMPTILDDPGKKVKKPAPPQHFSPRTAQGLPGTSNSNSSRSGSQRQGSWDSRDVVLSTSPKLLATATANGHGLKGNDESAGLDRRGSSSSSPEHSASSDSTKAPQTPRSGAAHLCDSQETNCSTAGHSKTPPSGADSKTVKLKSPVLSNTTTEPASTMSPPPAKKLALSAKKASTLWRATGNDLRPPPPSPSSDLTHPMKTSHPVVASTWPVHRARAVSPAPQSSSRLQPPFSPHPTLLSSTPKPPGTSEPRSCSSISTALPQVNEDLVSLPHQLPEASEPPQSPSEKRKKTFVGEPQRLGSETRLPQHIREATAAPHGKRKRKKKKRPEDTAASALQEGQTQRQPGSPMYRREGQAQLPAVRRQEDGTQPQVNGQQVGCVTDGHHASSRKRRRKGAEGLGEEGGLHQDPLRHSCSPMGDGDPEAMEESPRKKKKKKRKQETQRAVEEDGHLKCPRSAKPQDAVVPESSSCAPSANGWCPGDRMGLSQAPPVSWNGERESDVVQELLKYSSDKAYGRKVLTWDGKMSAVSQDAIEDSRQARTETVVDDWDEEFDRGKEKKIKKFKREKRRNFNAFQKLQTRRNFWSVTHPAKAASLSYRR [USP36]	-1.41	0.946	52.3	52.2
